In patent publication US20220143148A1, “COMPOSITIONS AND METHODS FOR MODULATING CGRP SIGNALING TO REGULATE INTESTINAL INNATE LYMPHOID CELLS” (The Broad Institute, Inc., priority 2019, published 2022):

System: small intestinal immune cells
Test: Droplet-based scRNA-seq of small intestinal immune cells (LP and PP), OVA vs PBS, clustering and differential expression
Format: in vivo, mouse
Conditions: PP; cluster ID 8
Description: To comprehensively characterize small intestinal immune cells, Applicants generated scRNA-Seq profiles for 58,067 immune cells collected from lamina propria (LP) and Peyer's patch (PP) regions at steady state and after induction of a type 2 inflammatory reaction to ovalbumin (OVA) (Brandt et al., 2003) (FIGS. 1A and 8A). To ensure sufficient representation of rare cells, Applicants combined a normalization strategy—removing by flow sorting either a portion of IgD+ naïve B cells, which are the most abundant cell type in PPs, or all CD19+ and CD3+ T cells (FIG. 8B, Methods)—with profiling of a sufficiently large number of cells number (P>0.99 to recover at least 15 cells from each cluster, Methods) by massively parallel scRNA-seq (Haber et al., 2017) (Methods). Applicants obtained 36,797 and 21,270 high quality cells passing initial filtering (Methods) from PP and LP regions, respectively.
Overall, Applicants annotated 27 cell subsets across the two compartments, spanning T cells, B cells, ILCs, dendritic cells (DCs), myeloid cells and stromal cells, in frequencies ranging from 0.07% to 14%. Briefly, Applicants first partitioned the cells from the PP regions by unsupervised clustering (Methods) into 46 clusters, retained the 97% of cells that were robustly assigned cell identities in each cluster (Methods), assigned the cells from the LP regions to the 46 clusters using a classifier (Methods), and visualized the data with scvis (Ding et al., 2018), a deep generative model-based method (FIGS. 1B and 8C, Methods). Next, Applicants identified genes that were differentially expressed between the cells in each cluster and the remaining cells (Table 1, Methods), as well as between pairs of clusters (Table 2), to elucidate identities of similar cell types/states. Applicants excluded from downstream analysis clusters mostly consisting of contaminants from epithelium, likely doublets, or cells with a small number of Unique Molecular Identifiers (UMIs) (FIGS. 1C and 8D), or lacking distinct markers (Methods). Altogether, Applicants retained 27 clusters spanning 85% of the cells and each associated with distinct marker genes (FIG. 8E, Methods).
To induce allergic reaction to OVA, 6 to 7 weeks old mice were sensitized twice, two weeks apart, with 50 μg of OVA plus 1 mg of aluminum potassium sulfate adjuvant via intraperitoneal injection. Two weeks later, mice were orally administered with 50 mg of OVA on every other day for a total of five times. 1 μg of α-CGRP peptide was administered simultaneously when indicated. Mice were deprived of food for 3-4 hours in cages with wood chip bedding for limiting antigen degradation in the stomach before each intragastric challenge.
Isolation of cells from Peyer's patches (PPs). Peyer's patches (PPs) were carefully dissected from the small intestine under a stereo microscope using a fine scissor, pierced once with a fine forcep. Tissues were digested in freshly made digestion buffer (RPMI-1640 containing 100 μg/ml Liberase™ and 50 μg/ml DNase I at 37° C. on a roto-mixer. After 15 min, tissues were very gently mixed using a 1 ml pipette. The supernatant was collected and added to ice-cold MACS buffer (pH 7.4; PBS plus 2% FCS and 2 mM EDTA). Pre-warmed (37° C.) fresh digestion buffer was added to the remaining tissues. After rotation at 37° C. for 15 min, the mixture was vigorously mixed using a 1 ml pipette for 1 min. Supernatants from the two steps were combined and passed through 70 μm filters and stained for FACS (below).
Isolation of cells from the lamina propria (LP). The small intestines were opened longitudinally and washed in ice-cold PBS. For scRNA-seq, roughly 0.5 cm of fragments from each of the distal, middle and proximal regions without visible PPs were collected. Epithelial cells were dissociated by tissue rotation in pre-warmed (37° C.) PBS containing 10 mM EDTA at 37° C. for 15 min, followed by additional incubation on ice for 15 min. Tissues were then shaken vigorously. […]

B1: OVA (protein, UniProt P01012 2-386, looked up)
Ovalbumin: GSIGAASMEFCFDVFKELKVHHANENIFYCPIAIMSALAMVYLGAKDSTRTQINKVVRFDKLPGFGDSIEAQCGTSVNVHSSLRDILNQITKPNDVYSFSLASRLYAEERYPILPEYLQCVKELYRGGLEPINFQTAADQARELINSWVESQTNGIIRNVLQPSSVDSQTAMVLVNAIVFKGLWEKAFKDEDTQAMPFRVTEQESKPVQMMYQIGLFRVASMASEKMKILELPFASGTMSMLVLLPDEVSGLEQLESIINFEKLTEWTSSNVMEERKIKVYLPRMKMEEKYNLTSVLMAMGITDVFSSSANLSGISSAESLKISQAVHAAHAEINEAGREVVGSAEAGVDAASVSEEFRADHPFLFCIKHIATNAVLFFGRCVSP
  Fosl2 percentage of expressing cells in OVA-treated group: 0.378
  Ftl1 percentage of expressing cells in OVA-treated group: 0.963
  Gadd45b percentage of expressing cells in OVA-treated group: 0.17
  Gimap1 percentage of expressing cells in OVA-treated group: 0.776
  Gimap6 percentage of expressing cells in OVA-treated group: 0.815
  Gimap9 percentage of expressing cells in OVA-treated group: 0.511
  Gnai2 percentage of expressing cells in OVA-treated group: 0.661
  Gramd1a percentage of expressing cells in OVA-treated group: 0.336
  Gramd3 percentage of expressing cells in OVA-treated group: 0.227
  Gzma percentage of expressing cells in OVA-treated group: 0.764
  H2-K1 percentage of expressing cells in OVA-treated group: 0.978
  H3f3b percentage of expressing cells in OVA-treated group: 0.993
  Hcst percentage of expressing cells in OVA-treated group: 0.898
  Hist1h1c percentage of expressing cells in OVA-treated group: 0.348
  Hist1h1e percentage of expressing cells in OVA-treated group: 0.176
  Icam1 percentage of expressing cells in OVA-treated group: 0.175
  Id2 percentage of expressing cells in OVA-treated group: 0.684
  Ier2 percentage of expressing cells in OVA-treated group: 0.781
  Ier5l percentage of expressing cells in OVA-treated group: 0.057
  Ifi203 percentage of expressing cells in OVA-treated group: 0.547
  Ifrd1 percentage of expressing cells in OVA-treated group: 0.276
  Igha percentage of expressing cells in OVA-treated group: 0.488
  Igkc percentage of expressing cells in OVA-treated group: 0.677
  Ikzf2 percentage of expressing cells in OVA-treated group: 0.216
  Il2rg percentage of expressing cells in OVA-treated group: 0.681
  Il16 percentage of expressing cells in OVA-treated group: 0.336
  Jun percentage of expressing cells in OVA-treated group: 0.453
  Jund percentage of expressing cells in OVA-treated group: 0.846
  Kdm2b percentage of expressing cells in OVA-treated group: 0.158
  Kdm6b percentage of expressing cells in OVA-treated group: 0.274
  Klf4 percentage of expressing cells in OVA-treated group: 0.122
  Klf6 percentage of expressing cells in OVA-treated group: 0.589
  Klrb1c percentage of expressing cells in OVA-treated group: 0.735
  Klrb1f percentage of expressing cells in OVA-treated group: 0.56
  Klrc1 percentage of expressing cells in OVA-treated group: 0.608
  Klrc2 percentage of expressing cells in OVA-treated group: 0.505
  Klrd1 percentage of expressing cells in OVA-treated group: 0.939
  Klre1 percentage of expressing cells in OVA-treated group: 0.744
  Klrk1 percentage of expressing cells in OVA-treated group: 0.873
  Lax1 percentage of expressing cells in OVA-treated group: 0.286
  Litaf percentage of expressing cells in OVA-treated group: 0.339
  Lmna percentage of expressing cells in OVA-treated group: 0.089
  Maff percentage of expressing cells in OVA-treated group: 0.251
  Mcpt1 percentage of expressing cells in OVA-treated group: 0.209
  Mir142hg percentage of expressing cells in OVA-treated group: 0.161
  Ms4a4b percentage of expressing cells in OVA-treated group: 0.953
  Ms4a6b percentage of expressing cells in OVA-treated group: 0.419
  Myl6 percentage of expressing cells in OVA-treated group: 0.987
  Nabp1 percentage of expressing cells in OVA-treated group: 0.702
  Ncr1 percentage of expressing cells in OVA-treated group: 0.964
  Ndel1 percentage of expressing cells in OVA-treated group: 0.216
  Neat1 percentage of expressing cells in OVA-treated group: 0.503
  Neurl3 percentage of expressing cells in OVA-treated group: 0.388
  Nfil3 percentage of expressing cells in OVA-treated group: 0.365
  Nfkb1 percentage of expressing cells in OVA-treated group: 0.374
  Nfkbia percentage of expressing cells in OVA-treated group: 0.614
  Nfkbid percentage of expressing cells in OVA-treated group: 0.146
  Nfkbie percentage of expressing cells in OVA-treated group: 0.111
  Nfkbiz percentage of expressing cells in OVA-treated group: 0.358
  Ninj1 percentage of expressing cells in OVA-treated group: 0.125
  Nkg7 percentage of expressing cells in OVA-treated group: 0.985
  Nr4a1 percentage of expressing cells in OVA-treated group: 0.561
  Nr4a2 percentage of expressing cells in OVA-treated group: 0.348
  Nr4a3 percentage of expressing cells in OVA-treated group: 0.157
  Odc1 percentage of expressing cells in OVA-treated group: 0.202
  P2ry10 percentage of expressing cells in OVA-treated group: 0.374
  Phlda1 percentage of expressing cells in OVA-treated group: 0.134
  Pim1 percentage of expressing cells in OVA-treated group: 0.677
  Pnrc1 percentage of expressing cells in OVA-treated group: 0.769
  Ppp1r15a percentage of expressing cells in OVA-treated group: 0.406
  Ppp1r16b percentage of expressing cells in OVA-treated group: 0.206
  Ppp3cc percentage of expressing cells in OVA-treated group: 0.268
  Prr7 percentage of expressing cells in OVA-treated group: 0.093
  Ptp4a2 percentage of expressing cells in OVA-treated group: 0.606
  Ptprcap percentage of expressing cells in OVA-treated group: 0.929
